Data on two molecules can be found in publication PMC10085679, “Filament assembly underpins the double-stranded DNA specificity of AIM2-like receptors”.

Data set [1] addresses T1, AIM2FL (Homo sapiens, UniProt O14862 1-343).
T1 sequence: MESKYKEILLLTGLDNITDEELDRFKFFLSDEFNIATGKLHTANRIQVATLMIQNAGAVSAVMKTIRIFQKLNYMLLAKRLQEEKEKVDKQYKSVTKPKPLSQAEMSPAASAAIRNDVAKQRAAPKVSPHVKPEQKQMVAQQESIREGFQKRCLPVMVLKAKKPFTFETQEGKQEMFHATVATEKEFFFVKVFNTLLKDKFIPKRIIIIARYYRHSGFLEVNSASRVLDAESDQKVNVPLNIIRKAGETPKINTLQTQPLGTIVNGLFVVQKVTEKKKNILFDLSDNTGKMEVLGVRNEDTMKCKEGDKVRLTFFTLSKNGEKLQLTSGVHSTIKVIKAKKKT
Description: competition fluorescence anisotropy; unlabelled competitor against 6 nM 60-bp FAM-dsDNA, 60 nM protein; 160 mM KCl (60 mM KCl for IFI16HinAB); buffer, pH and temperature not given in the available text. To be noted: protein: recombinant. In general terms: In fluorescence polarisation assays a small probe gives low polarisation when free and higher when bound to something large.

Data set [2] deals with T2, IFI16HinAB (Homo sapiens, UniProt Q16666-2 159-729). Description: competition fluorescence anisotropy; unlabelled competitor against 6 nM 60-bp FAM-dsDNA, 400 nM protein; 160 mM KCl (60 mM KCl for IFI16HinAB); buffer, pH and temperature not given in the available text. Particulars: protein: recombinant.
T2 sequence (Q16666 other isoform, or with tags, fused parts or gaps): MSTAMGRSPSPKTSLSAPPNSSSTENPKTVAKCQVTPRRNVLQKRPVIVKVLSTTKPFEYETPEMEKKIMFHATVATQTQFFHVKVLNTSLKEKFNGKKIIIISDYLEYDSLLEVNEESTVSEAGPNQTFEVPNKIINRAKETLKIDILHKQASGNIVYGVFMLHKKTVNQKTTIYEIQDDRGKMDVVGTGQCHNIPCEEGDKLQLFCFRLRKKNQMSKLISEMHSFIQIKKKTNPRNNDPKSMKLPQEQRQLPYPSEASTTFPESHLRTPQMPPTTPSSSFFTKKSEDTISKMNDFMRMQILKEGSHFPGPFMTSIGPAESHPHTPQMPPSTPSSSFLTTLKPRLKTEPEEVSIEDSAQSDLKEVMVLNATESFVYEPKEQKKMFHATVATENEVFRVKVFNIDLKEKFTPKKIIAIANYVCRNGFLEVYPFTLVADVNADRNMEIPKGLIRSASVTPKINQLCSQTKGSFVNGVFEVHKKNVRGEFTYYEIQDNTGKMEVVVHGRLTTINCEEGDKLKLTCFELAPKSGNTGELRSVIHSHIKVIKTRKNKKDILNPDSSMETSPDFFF
For data set [3], the target named is T3, AIM2HIN (Homo sapiens, UniProt O14862 144-343).
T3 sequence: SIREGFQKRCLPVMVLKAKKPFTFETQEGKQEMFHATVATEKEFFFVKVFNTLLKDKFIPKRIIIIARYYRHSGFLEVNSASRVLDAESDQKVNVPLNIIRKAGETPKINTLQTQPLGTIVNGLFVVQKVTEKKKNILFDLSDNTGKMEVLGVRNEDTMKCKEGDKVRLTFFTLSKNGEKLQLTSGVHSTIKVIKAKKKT
The data set is described as above. Particulars: protein: recombinant.

Data set [4] concerns the target T4, IFI16FL (Homo sapiens, UniProt Q16666-2 1-729). In words: competition fluorescence anisotropy; unlabelled competitor against 6 nM 60-bp FAM-dsDNA, 100 nM protein; 160 mM KCl (60 mM KCl for IFI16HinAB); buffer, pH and temperature not given in the available text. Particulars: protein: recombinant; tags: C-terminal His6; chain copies: 4.
Data set [5] addresses T1, AIM2FL. Description: fluorescence anisotropy; upper-limit estimate; 160 mM KCl; 60 mM KCl for IFI16HinAB; FAM probe 3-6 nM (FA) or 20 nM (EMSA); binding buffer pH and temperature not in the material. To be noted: protein: recombinant.
For data set [6], the target named is T2, IFI16HinAB. In words: competition fluorescence anisotropy; unlabelled competitor against 6 nM 24-bp FAM-dsDNA, 1000 nM protein; 160 mM KCl (60 mM KCl for IFI16HinAB); buffer, pH and temperature not given in the available text. To be noted: protein: recombinant.
Data set [7] has as its target T1, AIM2FL. Description: competition fluorescence anisotropy; unlabelled competitor against 6 nM 24-bp FAM-dsDNA, 100 nM protein; 160 mM KCl (60 mM KCl for IFI16HinAB); buffer, pH and temperature not given in the available text. Particulars: protein: recombinant.
Data set [8] has as its target T3, AIM2HIN. In words: competition fluorescence anisotropy; unlabelled competitor against 6 nM 24-bp FAM-dsDNA, 625 nM protein; 160 mM KCl (60 mM KCl for IFI16HinAB); buffer, pH and temperature not given in the available text. To be noted: protein: recombinant.
Data set [9] deals with T4, IFI16FL. In words: competition fluorescence anisotropy; unlabelled competitor against 6 nM 24-bp FAM-dsDNA, 500 nM protein; 160 mM KCl (60 mM KCl for IFI16HinAB); buffer, pH and temperature not given in the available text. Particulars: protein: recombinant, tags: C-terminal His6.
Data set [10] addresses T4, IFI16FL. In words: fluorescence anisotropy; printed 0.003*, upper-limit estimate; 160 mM KCl; 60 mM KCl for IFI16HinAB; FAM probe 3-6 nM (FA) or 20 nM (EMSA); binding buffer pH and temperature not in the material. Particulars: protein: recombinant; tags: C-terminal His6.
Data set [11] has as its target T2, IFI16HinAB. Description: fluorescence anisotropy; 160 mM KCl (60 mM KCl for IFI16HinAB); buffer, pH and temperature not given in the available text. To be noted: protein: recombinant.
In data set [12] the target is T3, AIM2HIN. The data set is described as above. Particulars: protein: recombinant.
Data set [13] concerns the target T1, AIM2FL. In words: fluorescence anisotropy; 160 mM KCl; 60 mM KCl for IFI16HinAB; FAM probe 3-6 nM (FA) or 20 nM (EMSA); binding buffer pH and temperature not in the material. To be noted: protein: recombinant.
Data set [14] addresses T4, IFI16FL. Description: competition; last row of Table S10, presumably against 60-bp FAM-dsDNA; 160 mM KCl; 60 mM KCl for IFI16HinAB; FAM probe 3-6 nM (FA) or 20 nM (EMSA); binding buffer pH and temperature not in the material. To be noted: protein: recombinant; tags: C-terminal His6. (In general: Mobility shift assays separate free from complexed probe on a gel.)
The target in data set [15] is T1, AIM2FL. In words: fluorescence anisotropy; 160 mM KCl (60 mM KCl for IFI16HinAB); buffer, pH and temperature not given in the available text. Particulars: protein: recombinant.
Data set [16] deals with T4, IFI16FL. The description is as above. Particulars: protein: recombinant; tags: C-terminal His6.

What is called IC50 is the concentration that inhibits the measured activity by half. The Kd is the concentration at which binding is half-saturated.

Some results are limits rather than exact numbers.

T4 sequence (Q16666 other isoform, or with tags, fused parts or gaps): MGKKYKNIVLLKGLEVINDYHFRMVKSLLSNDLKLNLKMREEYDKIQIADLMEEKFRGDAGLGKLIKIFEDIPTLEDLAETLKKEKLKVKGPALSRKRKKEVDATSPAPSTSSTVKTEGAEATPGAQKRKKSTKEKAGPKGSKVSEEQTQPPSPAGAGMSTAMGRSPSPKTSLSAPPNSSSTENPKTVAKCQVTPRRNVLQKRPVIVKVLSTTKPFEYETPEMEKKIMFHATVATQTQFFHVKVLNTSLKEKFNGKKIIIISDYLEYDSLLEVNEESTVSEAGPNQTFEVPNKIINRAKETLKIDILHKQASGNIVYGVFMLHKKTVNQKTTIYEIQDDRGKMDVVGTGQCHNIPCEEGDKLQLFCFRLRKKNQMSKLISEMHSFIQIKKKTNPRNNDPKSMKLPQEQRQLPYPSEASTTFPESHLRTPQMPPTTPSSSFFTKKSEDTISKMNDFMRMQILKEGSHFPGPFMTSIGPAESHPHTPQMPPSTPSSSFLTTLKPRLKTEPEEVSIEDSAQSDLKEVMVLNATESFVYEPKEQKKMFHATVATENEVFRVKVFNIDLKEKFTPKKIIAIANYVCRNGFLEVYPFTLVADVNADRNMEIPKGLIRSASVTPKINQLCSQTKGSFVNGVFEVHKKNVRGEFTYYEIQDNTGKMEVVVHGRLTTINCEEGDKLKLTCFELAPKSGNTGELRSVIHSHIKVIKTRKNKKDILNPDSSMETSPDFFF

B1: 60-bp dsDNA (dsDNA)
DNA 1: TAAGACACGATGCGATAAAATCTGTTTGTAAAATTTATTAAGGGTACAAATTGCCCTAGC
DNA 2: GCTAGGGCAATTTGTACCCTTAATAAATTTTACAAACAGATTTTATCGCATCGTGTCTTA
On to B1, for which the IC50 with AIM2FL [1] was determined as 142 ± 8.5 nM; in the data set with IFI16HinAB [2], 258 ± 24.9 nM; in the data set with AIM2HIN [3], 268 ± 8.4 nM; in the data set with IFI16FL [4], 627 ± 132 nM; with IFI16HinAB [6], 289 ± 37.3 nM; in the data set with AIM2FL [7], 11.8 ± 0.3 nM. Moreover, the values for the IC50 with AIM2HIN [8] and with IFI16FL [9] (chain copies: 4) were 19.7 ± 1.9 nM and 331 ± 29.8 nM, respectively. In addition, the Kd was below 3 nM with AIM2FL [5], below 3 nM in the data set with IFI16FL [10], 20 ± 10 nM in the data set with IFI16HinAB [11] and 600 ± 100 nM with AIM2HIN [12].

B2: 60-bp DNA:RNA hybrid (DNA:RNA)
DNA: B1 DNA 1
RNA: GCUAGGGCAAUUUGUACCCUUAAUAAAUUUUACAAACAGAUUUUAUCGCAUCGUGUCUUA
Turning to B2, the IC50 with IFI16HinAB [2] turned out to be 623 ± 106 nM; with AIM2HIN [3], 350 ± 44 nM; with IFI16HinAB [6] it was 663 ± 64.6 nM; with AIM2FL [7], 19.6 ± 0.44 nM; in the data set with AIM2HIN [8], 100 ± 9 nM; with IFI16FL [14], 975 ± 48.1 nM. Also, the IC50 in the data set with IFI16FL [9] came to 239 ± 31.9 nM. Moreover, the Kd was 40 ± 10 nM in the data set with AIM2FL [13]; 40 ± 10 nM with AIM2FL [15]; 60 ± 10 nM with IFI16HinAB [11]; 35 ± 15 nM with IFI16FL [16]; 800 ± 100 nM with AIM2HIN [12].
